Assay: yeast display, Sf9 membrane polyspecificity reagent, FACS + sequencing; frameworks hold sequencing errors
Outline: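 Using colony PCR, genes from sorted yeast display clones were amplified, then sequenced on MiSeq at 2 × 250 and filtered by CDR length. The clones had been stained with 10% biotinylated, detergent-solubilized Sf9 membrane reagent for 1 hour at 4 °C and sorted by FACS into low and high (top ~1%) gates on anti-HA and streptavidin fluorescence. Polyreactivity labels come from the gate of origin.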

Row | Sequence | polyreactivity (PSR sort gate)
1 | QVQLVESGGGLVQAGGSLRLSCAASGLIFVYYTMGWYRQAPGKERELVAAIRSGGGTNYADSVKGRFTISRDNAKNTVYFQMNSLKPEDTAVYYCAASIRSYAYGGRKYNYWGQGSQVTVSS | high polyreactivity
2 | QVQLVESGGGLVQAGGSLRLSCAASGLIFWAYAMGWYRQAPGKERELVAAISWSGARTYYADSVKGRFTISRDNAKNTVYLQMNSLKPEDTAVYYCAAGVSSSSSGYEGDYWGQGTQVTVSS | high polyreactivity
3 | QVQLVESGGGLVQAGGSLRLSCAASGLIFWAYAMGWYRQAPGTDRELVAAINWRGGSTYYADSVKGRFTISRDTAKNTVYLQMNSLKPEDTAVYYCAADSYYDEYDYWGQGTQVTVSS | low polyreactivity
4 | QVQLVESGGGLVQAGGSLRLSCAASGLIFWINAMGWYRQAPWKERDLVAAITNSGGDTYYADSVKGRFTISRDNAKKTVYLQMNSLKTEDTAVYYCNADGTKWVRETYDYWGQGTQVTVSS | low polyreactivity
5 | QVQLVESGGGLVQAGGSLRLSCAASGLIFWRYDMGWYRQAPGKERELVAVITSGGNTYYADSVKGRFTISRDNAKNTVYLQMNSLKPEDTAVYYCNADTWRDDYDYWGQGTQVTVSS | low polyreactivity
6 | QVQLVESGGGLVQAGGSLRLSCAASGLIFYAYAMGWYRQAPGKEREFVAAINNSGGRTYYADSVKGRFTISRDNAKNTVYLQMYSLKPEDTAVYYCAVYSYYRRTYRREMDYWGQGTQVTVSS | high polyreactivity
7 | QVQLVESGGGLVQAGGSLRLSCAASGLIFYDNLGWYRQAPGKERELVAAISSSGGSTSYADSVKGRFTISRDNAKNTVYLQMNSLKPEDTAVYYCAADSYPAYLGFVGFDYWGQGTQVTVSS | low polyreactivity
8 | QVQLVESGGGLVQAGGSLRLSCAASGLIFYDNMGWYRQAPGKERELVAAISSSGGSRTYAYSVKGRFTISRDNAKNTVYFQMNSLKPEDTEVYYCALDKHYYGRYGVTYDYDYWGQGTQVTVSS | low polyreactivity
9 | QVQLVESGGGLVQAGGSLRLSCAASGLIFYDNMGWYRQAPGKERELVAAISSSGGSTSYADSVKGRFTISRDNAKNTVYLQMNSLKPADTAVYYCAADSYPAYLGFVGFDYWGQGTQVTVSS | low polyreactivity
10 | QVQLVESGGGLVQAGGSLRLSCAASGLIFYEHAMGWYRQAPGKERELVAAINYDGDSTYYADSVKGRFTISRDNAKITVYLQMNSLKPEDTAVYYCAADGGWVLFWMDYCGQGTQVTVSS | low polyreactivity
11 | QVQLVESGGGLVQAGGSLRLSCAASGLIFYFNAIGWYRQAPGKERELVASITRTGSTNYADSVKGRFTISRDNAKNTVYLHMNRLKPEYTAVYYCSAPWTQILDYWGQGTQVTVSS | low polyreactivity
12 | QVQLVESGGGLVQAGGSLRLSCAASGLIFYHNARGWYRQAPGKERELVAAITASGGSTYYADSVKGRFTISRDNAKNTVYFQMNSLKPEDTAVYYCAADGPLDSDLDYWGQGTQVTVSS | low polyreactivity
13 | QVQLVESGGGLVQAGGSLRLSCAASGLIFYIYAMGWYRQAPGKERELVAAITTGGRTNYADSVKGRFTISRDNAKNTVELQMNSLKPEDTAVYYCAKDFPIWISHGPDTDNDYWGQGTQVTVSS | low polyreactivity
14 | QVQLVESGGGLVQAGGSLRLSCAASGLIFYKNTMGWYRQAPGKERELVATITGRGGRTYYADSVKGRFTISRDIAKNSVYFQMNSLKPEDTAVYYCAARNQGRGYYWGQGTQVTVSS | high polyreactivity
15 | QVQLVESGGGLVQAGGSLRLSCAASGLIFYNYAMGWYRQAPGKERELVAAISSGGSTYYADSVKGRFTISRDNAKNTVYLQMNSLKPEDTAVYYCAASGPGYSRYTQYDSWGQGTQVTVSS | high polyreactivity
16 | QVQLVESGGGLVQAGGSLRLSCAASGLIFYNYAMGWYRQAPGKERELVAAITSGGSTYYADSVKGGFTISRDNAKNTVYLQMNSLKPEDTAVYYWAADLTYTVPFDYWGQGTQVTVSS | high polyreactivity
17 | QVQLVESGGGLVQAGGSLRLSCAASGLIFYPYAMGWYRQAPGKERELVAAISSGGSTNYADSVKGRFTISRDNAKNTVYLQMNSLKPEDTAVYYCAKRYPSFRGYGSFRYSGRKYWGQGTQVTVSS | high polyreactivity
18 | QVQLVESGGGLVQAGGSLRLSCAASGLIFYRNAMGWYRQAPGKERELVAGITRGSNTYYADSVKGRFTISRVNAKNTVYLQMNSLKPEDTAVYYCAAQVPVLQRAGNTRFGYWGQGTQVTVSS | low polyreactivity
19 | QVQLVESGGGLVQAGGSLRLSCAASGLIFYRYTMGWYRQAPGKERELVAAISRRGGSTFYADSVKGRFTISRDNAKNTVYLQMNSLKPEDTAVYYCAAASWYRRKIYYSWGQGTQVTVSS | high polyreactivity
20 | QVQLVESGGGLVQAGGSLRLSCAASGLIFYRYVMGWYRQAPGKERELVASISTSGGRTYYADSVKGRFTISRDNAKNTVYLQMNSLKPEDTAVYYFAADFESYSRYYDGYDYWGQGTQVTVSS | high polyreactivity
21 | QVQLVESGGGLVQAGGSLRLSCAASGLIFYSNAMGWYRQAPGKEREFVAAITRRGGSTYYADSVKGRFTISRDNAKNTVYLQMNSLKPEDTAVYYCNARYYHKRSTRVIFQYDYWGQGTQVTVSS | high polyreactivity
22 | QVQLVESGGGLVQAGGSLRLSCAASGLIFYSYAMGWYRQAPGKERELVAAITGGGSTNYADSVKGRFTISRDNAKNTVYLPMHSLKPEDTAVYYCAAAFTLRKYDYWGQGTQVTVSS | low polyreactivity

Row | Sequence | polyreactivity (PSR sort gate)
23 | QVQLVESGGGLVQAGGSLRLSCAASGLIFYTNAMGWYRQAPGKERELVAAIDRASTNYADSVKGRFTISRDNAKNTVYLQMNSLKPEDTAVYYCAAGAGRSTFTVGYWGQGTQVTVSS | low polyreactivity
24 | QVQLVESGGGLVQAGGSLRLSCAASGLIFYTYAMGWYRQAPGKEREFVAAISRRGGSTYYADSVKGRFTISRDNAKNTVYLQMNSLKPEDTAVYYCNARYTYPRPYEEYYYWGQGTQVTVSS | high polyreactivity
25 | QVQLVESGGGLVQAGGSLRLSCAASGLIFYTYAMGWYRQAPGKERELVADINRSDGSTYYADSVKGRFTISRDNAKNTVYLQMNRLKPEDTAVYYCAVVGPYYSRFGGRYYYWGQGTQVTVSS | low polyreactivity
26 | QVQLVESGGGLVQAGGSLRLSCAASGLIFYVYAMGWYRQAPGKERELVADISTAGGITNYADSVKGRFTISRDNAKNTVYLQMNSLKPEDTAVYYCAATQPWYNTRTRYGSWGQGTQVTVSS | low polyreactivity
27 | QVQLVESGGGLVQAGGSLRLSCAASGLIFYVYAMGWYRQAPGKERELVASITWSGGRTYYADSVKGRFTISRDNAKNTVYLQMNSLKPEDTAVYFCAKDWWGGPPNVYHSEYEYWGQGTQVTVSS | low polyreactivity
28 | QVQLVESGGGLVQAGGSLRLSCAASGLIIDGYAMGWYRQAPGKERELVATITVSGTSTYYADSVKGRFTISRDNAKNTVYLQMNSLKPEDTAVYYCATDRNYGYYFVEYDHDYWGQGTQVTVSS | low polyreactivity
29 | QVQLVESGGGLVQAGGSLRLSCAASGLIIPVYVMGWYRQAPGKERELVADITTVGSTYADSVKGRFTISRDNAKNTVYLQMNSLQPEDTAVYYCAADPPAPQYWWDHGNYWGQGTQVTVSS | low polyreactivity
30 | QVQLVESGGGLVQAGGSLRLSCAASGLILAPNAMGWYRQAPGKERELVAAITFRGVRTYYADSVKGRFTISRDNEKNTVYLQMNSLKPEDTAVYYCAAAVSKHYPYNYWGQGTQVSVSS | high polyreactivity
31 | QVQLVESGGGLVQAGGSLRLSCAASGLILDGNAMGWYRTAPGKERELVAAITRSGGRTYYADSVKGRFTISRDNAKNTVYFQMNSLKPEDTAVYYCAALGWSGRYRYDYWGQGTQVTVSS | high polyreactivity
32 | QVQLVESGGGLVQAGGSLRLSCAASGLILGPYAMGWYRKAPGKERELVAAITRGGGTYYADSVKGRFTISRDNAKNTVYLQMNSLKPEDTAVYDCARIYYVSIYRYDYWGQGTQVTVSS | high polyreactivity
33 | QVQLVESGGGLVQAGGSLRLSCAASGLILHKYAMGWYRQAPGKERELVASINSGANTNYADSVKGRFTISRDNAKNTVYLQMNSLKPEDTAVYYCNADPGFRDYYWGQGTQVNVSS | low polyreactivity
34 | QVQLVESGGGLVQAGGSLRLSCAASGLILKYYAMGWDRPAPGTEREFDAALTRRGGITYYADSVKGRFSISRDNAKNTVYLQMNSLKPEDTAVYYCAADPKLGSLAYWRYSYPLYDYWGQGTQVTVSS | low polyreactivity
35 | QVQLVESGGGLVQAGGSLRLSCAASGLILNSYDMGWYRQAPGKERELVAAITRSGGNTFYADSVKGRFKISRDNAKNTVYLQMNSLNPEDTAVYYCNAYYTYWSQLYYWGQGTQVTVSS | high polyreactivity
36 | QVQLVESGGGLVQAGGSLRLSCAASGLILRYNGMGWYRQAPGKERELVAAISSNAGTTSYADSVKGRFTISRDNAKNTVYLQMNSLKPEDTAVYWGQGTQVTVSS | low polyreactivity
37 | QVQLVESGGGLVQAGGSLRLSCAASGLILSRNTMGWYRQAPGKERELVAAITRRGGSTYYADSVKGRFTISRDNAKNTVYLQMNSLKPEDTAVYYCRLKVGTTSRWSYDYWGQGTQVTVSS | high polyreactivity
38 | QVQLVESGGGLVQAGGSLRLSCAASGLILSSNAMGWYRQAPGKERELVATINRSGASTYYADSVKGRFTISRDNAKNTVYLQMNSLKPEDTAVYYCNTATSRAYRYDYWGQGSQVTVSS | low polyreactivity
39 | QVQLVESGGGLVQAGGSLRLSCAASGLILVHYAMGWYRQAPGKERELVAAISAGGGSTYYADSVKGRFTISRDNAKNTVYLQMTSLKPEDTAVYYCNARVVNYFRPRTGAREYDYWGQGTQVTVSS | high polyreactivity
40 | QVQLVESGGGLVQAGGSLRLSCAASGLILVYYAMGWYRQAPGKERELVAAITPGGSTKYADSVKGRFTISRDNAKNTVYLQMNSLKPEDTAVYYCYALSGPYWYSVYQSHQDDYWGQGTQVTVSS | low polyreactivity
41 | QVQLVESGGGLVQAGGSLRLSCAASGLILYWYAMGWYRQAPGKERELVAAISISGGSTYYADSVKGRFTISRDNAKNTVYLQMNSLKPEDTAVYYCAAVYFYSWEGDGDYWGQGTQVTVSS | low polyreactivity
42 | QVQLVESGGGLVQAGGSLRLSCAASGLILYYYDMGWYRQAPGKERELVAAISWNGDDTYYADSVKGRFTISRDNAKNTVYLQMNSLKPEDTAVYYCAAEGPPQTDDYWGQATQVTVSS | high polyreactivity
43 | QVQLVESGGGLVQAGGSLRLSCAASGLISIFYTMGWYRQAPGKERELVAAITSGGSSTYYADSVKGRFTISRDNAKNTVYLQMNCLIPVDTAVYYCAAEPGFYYYWGQGTQVTVSS | low polyreactivity
